Results: patent US7301069B2, “Methods of protecting plants from pathogenic fungi and nematodes” (Pioneer Hi-Bred International, Inc., priority 2004, dated 2007)

B1: Kis5: Kistrin polypeptide of SEQ ID NO: 4 from Picea mariana (black spruce), predicted mature region, recombinantly expressed in E. coli as cleaved MBP fusion (protein, listed as Picea mariana)
chain: GSLRPSECGQRCSYRCSATSHKKPCMFFCQKCCAKCLCVPPGTFGNKQVCPCYNNWKTQQGGPKCP
modifications: PEPTIDE (0)...(0) Kis5 mature peptide
B2: Kis6: Kistrin polypeptide of SEQ ID NO: 7 from Arabidopsis thaliana, predicted mature region, recombinantly expressed in E. coli as cleaved MBP fusion (protein, listed as Arabidopsis thaliana)
chain: GYAKKIDCGSACVARCRLSRRPRLCHRACGTCCYRCNCVPPGTYGNYDKCQCYASLTTHGGRRKCP
modifications: PEPTIDE (0)...(0) Kis6 mature peptide
B3: Kis2: Kistrin polypeptide of SEQ ID NO: 1 from Arabidopsis thaliana, predicted mature region, recombinantly expressed in E. coli as cleaved MBP fusion (protein, listed as Arabidopsis thaliana)
chain: GKLKPQQCNSKCSFRCSATSHKKPCMFFCLKCCKKCLCVPPGTFGNKQTCPCYNNWKTKEGRPKCP
modifications: PEPTIDE (0)...(0) Kis2 mature peptide
B4: Kis10: Kistrin polypeptide of SEQ ID NO: 10 from Petunia x hybrida, predicted mature region, recombinantly expressed in E. coli as cleaved MBP fusion (protein)
chain: GSLKPSQCLPQCTRRCSQTQYHNACMLFCQKCCNKCLCVPPGFYGNKGVCPCYNNWKTKEGGPKCP
modifications: Petunia x hybrida; PEPTIDE (0)...(0) Kis10 mature peptide

test system: C. elegans; experiment: C. elegans feeding bioassay; assay type: in vivo, Caenorhabditis elegans; conditions: cleaved peptides; concentrations based on Bradford (BSA standard), assume 100% cleavage of the MBP-Kistrin fusion
Protocol: A number of polypeptides were recombinantly expressed in E. coli and then screened in a nematode bioassay.
C. elegans feeding bioassays. Screening was performed in high throughput using E. coli expressed material, corresponding to the predicted mature regions of various small peptides. Expression of biologically functional polypeptides involved producing a fusion protein that included a maltose-binding protein (MBP) and a polypeptide of interest and subsequently cleaving the fusion protein at a protease recognition sequence to release the peptide of interest. DNA encoding the polypeptide of interest was fused to the C-terminus of the MelE gene in the E. coli expression vector pMAL (New England Biolabs; see, Guan et al., Gene 67:21-30 (1987); and Maina et al., Gene 74:365-73 (1988)). Sequences encoding the cleavage site of proteases Factor Xa or Genenase I were incorporated between the genes of MBP and the polypeptide of interest. A histidine tag was also added to the N-terminus of MBP.
The constructed plasmid vector was transformed into cells of E. coli XL-1 Blue and transformants were grown in 2YT medium containing 50 μg/mL carbenicillin to a cell density of OD600=0.6-0.9. Expression of the fusion protein was induced by addition of IPTG into the culture to a final concentration of 1 mM. Cells were grown for 4-16 hours to saturation before harvesting. Cells were harvested by centrifugation and then lysed with B-PER reagent (Pierce Chemicals, Rockford, Ill.) to obtain the fraction of soluble proteins. The fusion protein was purified from the cell lysate supernatant utilizing the histidine tag by incubating the cell lysate with Ni-NTA agarose resins for 20 minutes to 1 hour. The resins were washed with Tris buffer to remove all unbound proteins. Two-mercaptoethanol (10 mM) was included in the lysis and washing buffers to allow partial refolding of the proteins. Elution of the bound fusion protein was performed with buffer containing 20-40 mM […]. To release the polypeptide of interest, the purified fusion protein was incubated with Factor Xa or Genease I (RT, 8-24 hours). The cleaved protein sample was then used in nematode activity assays.
Hit characterization. Approximate IC50's (in μg/mL) for 4 hits determined from C. elegans bioassay using cleaved peptides. Concentrations were determined based on Bradford (BSA standard) and assume 100% cleavage of the MBP-Kistrin fusion.

Row | Molecule | Approximate IC50 from C. elegans bioassay
1 | B1 | 75 mg/L
2 | B2 | 150 mg/L
3 | B3 | 15 mg/L
4 | B4 | 30 mg/L

test system: Fusarium verticillioides; experiment: Anti-fungal bioassay (primary screening); assay type: cell-based; set-up: key: 0 = no effect; 1 = partial growth inhibition; 2 = strong inhibition; conditions: protease-cleaved fusion protein samples, scored after 18 to 48 hours
Protocol: (§1) The same polypeptides of Example 1 which were recombinantly expressed in E. Coli were also screened in an anti-fungal bioassay against five selected fungal pathogens.
(§2) All fungal strains were grown and maintained on potato dextrose agar (PDA) plates, in a 30° C. incubator. These plates were kept in smaller secondary containers (per fungal strain), with moist paper towels to maintain high humidity. Spores were harvested in a quarter strength of potato dextrose broth (PDB) after about 2 weeks of growth, counted using a hemacytometer, and subsequently stored in small aliquots at −80° C.
(§3) The frozen spores were diluted to the working concentration (determined empirically for each fungal strain), in a quarter strength of PDB, and 50 μL (per well) were added to sterile, flat-bottomed 96-well assay plates. The assay plates were incubated in the humid boxes at room temperature for 5-7 hours to allow the spores to germinate. Serial dilutions of purified, protease-cleaved fusion protein samples were then added to the assay plates, in 50 μL volumes, for a final assay volume of 100 μL per well. The assay plates were allowed to incubate overnight, in a humid box, at 30° C. Antifungal activity was scored after 18 to 48 hours, depending upon the strain of fungus.

Row | Molecule | Antifungal score, Fusarium verticillioides
5 | B1 | 0
6 | B2 | 0
7 | B3 | 0
8 | B4 | 0

test system: Fusarium oxysporum; experiment: Anti-fungal bioassay (primary screening); assay type: cell-based; set-up: key: 0 = no effect; 1 = partial growth inhibition; 2 = strong inhibition; conditions: protease-cleaved fusion protein samples, scored after 18 to 48 hours
Protocol: as §1, §2, §3

Row | Molecule | Antifungal score, Fusarium oxysporum
9 | B1 | 1
10 | B2 | 0
11 | B3 | 0
12 | B4 | 0

test system: Botrytis cinerea; experiment: Anti-fungal bioassay (primary screening); assay type: cell-based; set-up: key: 0 = no effect; 1 = partial growth inhibition; 2 = strong inhibition; conditions: protease-cleaved fusion protein samples, scored after 18 to 48 hours
Protocol: as §1, §2, §3

Row | Molecule | Antifungal score, Botrytis cinerea
13 | B1 | 0
14 | B2 | 0
15 | B3 | 0
16 | B4 | 0

test system: Alternaria brassicicola; experiment: Anti-fungal bioassay (primary screening); assay type: cell-based; set-up: key: 0 = no effect; 1 = partial growth inhibition; 2 = strong inhibition; conditions: protease-cleaved fusion protein samples, scored after 18 to 48 hours
Protocol: as §1, §2, §3

Row | Molecule | Antifungal score, Alternaria brassicicola
17 | B1 | 0
18 | B2 | 0
19 | B3 | 0
20 | B4 | 0

test system: Verticillium dahliae; experiment: Anti-fungal bioassay (primary screening); assay type: cell-based; set-up: key: 0 = no effect; 1 = partial growth inhibition; 2 = strong inhibition; conditions: protease-cleaved fusion protein samples, scored after 18 to 48 hours
Protocol: as §1, §2, §3

Row | Molecule | Antifungal score, Verticillium dahliae
21 | B1 | 2
22 | B2 | 1
23 | B3 | 0
24 | B4 | 0
